Experimental data from patent US20200207857A1 (SPARX BIOSCIENCE, published 2020).

Columns and labels:
[1] = biological target: T1, human Claudin 18.2 (CLDN 18.2) expressed on HEK293 / HEK293T cells (human); assay: flow cytometry on HEK293 cells transiently transfected with GFP and human CLDN 18.2
T1 construct: Full-length CLDN18.2 on transiently or stably transfected HEK293/HEK293T cells; also called CLD18.2
Method: After cell detachment using 2 mM EDTA/PBS cells were washed with complete growth medium and plated at approximately 1-5×10⁵ cells/well in U-bottom microtiter plates. Cells were incubated for […]. at 4° C. with monoclonal antibody 3B8 followed by three washing steps with ice cold PBS and finally incubation with Dylight 650-conjugated secondary anti-IgG antibody. Binding was assessed by flow cytometry using a BD, Accuri™ C6 Plus. Fluorescence marker expression was plotted on the horizontal axis against antibody binding on the vertical axis. Mouse antibodies 3B8 were detected to bind specifically to the surface of fluorescence marker expressing HEK293 cells (FIG. 3, cells in Q5-UR).

[2] = biological target: T1, human Claudin 18.2 (CLDN 18.2) …; assay: cell-based ELISA (InCell Elisa) on fixed HEK293_CLDN18.2 cells, OD450; Kd table under the graph, no unit in the table, unit from the x axis log[antibody] ug/ml
[3] = biological target: T1, human Claudin 18.2 (CLDN 18.2) …; assay: cell-based ELISA (InCell Elisa) on formalin-fixed HEK293_CLDN18.2 cells, OD450; Kd box under the graph, no unit in the box, unit from the x axis log[antibody] nM; the curve on HEK293T cells stays flat at about 0.1
[4] = biological target: T1, human Claudin 18.2 (CLDN 18.2) …; assay: cell-based ELISA (InCell Elisa) on fixed HEK293_CLDN18.2 cells, y axis RLU; Kd table under the graph, no unit in the table, unit from the x axis log[antibody] ug/ml

T1 sequence (chain, as listed by the source limits assumed): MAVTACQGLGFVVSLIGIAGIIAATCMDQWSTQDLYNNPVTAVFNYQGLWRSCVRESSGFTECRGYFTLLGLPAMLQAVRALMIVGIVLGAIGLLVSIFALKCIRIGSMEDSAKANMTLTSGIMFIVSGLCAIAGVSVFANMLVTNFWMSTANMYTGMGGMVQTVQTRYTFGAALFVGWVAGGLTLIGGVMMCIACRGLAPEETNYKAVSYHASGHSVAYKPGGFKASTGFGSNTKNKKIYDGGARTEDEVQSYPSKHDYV

Binder	EC50 [1] [µg/mL]	Kd [2] [µg/mL]	Kd [3] [nM]	Kd [4] [µg/mL]
Anti-CLDN 18.2-3B8 (antibody, V domains shown, Mouse monoclonal antibody; also called monoclonal antibody 3B8) VH: EVKLVESGGGLVKPGGSLKLSCAASGFTFSSYAMSWVRQTPEKRLEWVASISSGGSTYYPDSVKGRFTISRDNARNILYLQMSSLRSEDTAMYYCASFGYDVAMDYWGQGTSVTVSS VL: DVLMTQTPLSLPVSLGDQASISCRSSQSIVHSNGNTYLQWYLQKPGQSPKLLIYKVSNRFSGVPDRFSGSGSGTDFTLKISRVEAEDLGVYYCFQGSHVPFTFGSGTKLEIK	1 to 2	–	–	–
Anti-CLDN 18.2-5C9o (humanized antibody h5C9o) (antibody, V domains shown, Humanized IgG; The general method joins the variable domains to human IgG1 constant domains; Full chains are not mapped to the name; also called CLDN18.2-h5C9o) VH: EVQLVESGGGLVQPGGSLRLSCAVSGYTFSMNWVRQAPGKGLEWVAWINMYTGEPTYADDFKGRFTISRDDSKNTLYLQMNSLRAEDTAVYYCARLYNGNSLDYWGQGTLVTVSS VL: DIQMTQSPSSLSASVGDRVTITCKSSQSLLNSGNQKSYLTWYQQKPGKAPKLLIYWASTLESGVPSRFSGSGSGTDYTLTISSLQPEDFATYYCQNAYSFPFTFGQGTKVEIK	–	0.126	0.169	–
humanized anti-Claudin 18.2 antibody h5C9oao (antibody, human IgG1, kappa, V domains shown) VH: EVQLVESGGGLVQPGGSLRLSCAVSGYTFSMNWVRQAPGKGLEWVAWINMYTGEPTYADDFKGRFTISRDDSKNTLYLQMNSLRAEDTAVYYCARLARGNSMDYWGQGTLVTVSS VL: DIQMTQSPSSLSASVGDRVTITCKSSQSLLNSGNQKSYLTWYQQKPGKAPKLLIYWASTLESGVPSRFSGSGSGTDYTLTISSLQPEDFATYYCQNAYFFPFTFGQGTKVEIKR	–	0.149	–	0.154
Anti-CLDN 18.2-5C9oae (humanized antibody h5C9oae) (antibody, human IgG1, V domains shown, the general method uses human IgG1 constant domains) VH: EVQLVESGGGLVQPGGSLRLSCAVSGYTFSMNWVRQAPGKGLEWVAWINMYTGEPTYADDFKGRFTISRDDSKNTLYLQMNSLRAEDTAVYYCARLYRGNSLDYWGQGTLVTVSS VL: DIQMTQSPSSLSASVGDRVTITCKSSQSLLNSGNQKSYLTWYQQKPGKAPKLLIYWASTLESGVPSRFSGSGSGTDYTLTISSLQPEDFATYYCQNAYFFPFTFGQGTKVEIK	–	0.123	–	0.184
Anti-CLDN 18.2-5C9oag (humanized antibody h5C9oag) (antibody, human IgG1, V domains shown, the general method uses human IgG1 constant domains) VH: EVQLVESGGGLVQPGGSLRLSCAVSGYTFSMNWVRQAPGKGLEWVAWINMYTGEPTYADDFKGRFTISRDDSKNTLYLQMNSLRAEDTAVYYCARLARGNSIDYWGQGTLVTVSS VL: DIQMTQSPSSLSASVGDRVTITCKSSQSLLNSGNQKSYLTWYQQKPGKAPKLLIYWASTLESGVPSRFSGSGSGTDYTLTISSLQPEDFATYYCQNAYSFPFTFGQGTKVEIK	–	–	–	0.191

Results, then the binder that gave them:

EC50 [1] [µg/mL]	Kd [2] [µg/mL]	Kd [3] [nM]	Kd [4] [µg/mL]	Binder
–	0.213	–	0.225	h5C9o Fc mutation (antibody, V domains shown) VH: EVQLVESGGGLVQPGGSLRLSCAVSGYTFSMNWVRQAPGKGLEWVAWINMYTGEPTYADDFKGRFTISRDDSKNTLYLQMNSLRAEDTAVYYCARLYNGNSLDYWGQGTLVTVSS VL: DIQMTQSPSSLSASVGDRVTITCKSSQSLLNSGNQKSYLTWYQQKPGKAPKLLIYWASTLESGVPSRFSGSGSGTDYTLTISSLQPEDFATYYCQNAYSFPFTFGQGTKVEIKR
–	0.153	–	0.206	Anti-CLDN 18.2-5C9ob (humanized antibody h5C9ob) (antibody, human IgG1, V domains shown, the general method uses human IgG1 constant domains; also called CLDN18.2-h5C9ob) VH: EVQLVESGGGLVQPGGSLRLSCAVSGYTFSMNWVRQAPGKGLEWVAWINMYTGEPTYADDFKGRFTISRDDSKNTLYLQMNSLRAEDTAVYYCARLYNGNSLDYWGQGTLVTVSS VL: DIQMTQSPSSLSASVGDRVTITCKSSQSLLNSGNQKSYLTWYQQKPGKAPKLLIYWASTLESGVPSRFSGSGSGTDYTLTISSLQPEDFATYYCQNAYFFPFTFGQGTKVEIK
–	0.168	–	0.194	humanized anti-Claudin 18.2 antibody h5C9oan (antibody, human IgG1, kappa, V domains shown) VH: EVQLVESGGGLVQPGGSLRLSCAVSGYTFSMNWVRQAPGKGLEWVAWINMYTGEPTYADDFKGRFTISRDDSKNTLYLQMNSLRAEDTAVYYCARSSRGNGFDYWGQGTLVTVSS VL: DIQMTQSPSSLSASVGDRVTITCKSSQSLLNSGNQKSYLTWYQQKPGKAPKLLIYWASTLESGVPSRFSGSGSGTDYTLTISSLQPEDFATYYCQNAYFFPFTFGQGTKVEIKR
–	–	–	0.18	Anti-CLDN 18.2-5C9oai (humanized antibody h5C9oai) (antibody, human IgG1, V domains shown, the general method uses human IgG1 constant domains) VH: EVQLVESGGGLVQPGGSLRLSCAVSGYTFSMNWVRQAPGKGLEWVAWINMYTGEPTYADDFKGRFTISRDDSKNTLYLQMNSLRAEDTAVYYCARLARGNSMDYWGQGTLVTVSS VL: DIQMTQSPSSLSASVGDRVTITCKSSQSLLNSGNQKSYLTWYQQKPGKAPKLLIYWASTLESGVPSRFSGSGSGTDYTLTISSLQPEDFATYYCQNAYSFPFTFGQGTKVEIK
